Molecular target: T1, B型肉毒毒素抗原 (Clostridium Botulinum, UniProt P10844 2-1291)
T1 sequence: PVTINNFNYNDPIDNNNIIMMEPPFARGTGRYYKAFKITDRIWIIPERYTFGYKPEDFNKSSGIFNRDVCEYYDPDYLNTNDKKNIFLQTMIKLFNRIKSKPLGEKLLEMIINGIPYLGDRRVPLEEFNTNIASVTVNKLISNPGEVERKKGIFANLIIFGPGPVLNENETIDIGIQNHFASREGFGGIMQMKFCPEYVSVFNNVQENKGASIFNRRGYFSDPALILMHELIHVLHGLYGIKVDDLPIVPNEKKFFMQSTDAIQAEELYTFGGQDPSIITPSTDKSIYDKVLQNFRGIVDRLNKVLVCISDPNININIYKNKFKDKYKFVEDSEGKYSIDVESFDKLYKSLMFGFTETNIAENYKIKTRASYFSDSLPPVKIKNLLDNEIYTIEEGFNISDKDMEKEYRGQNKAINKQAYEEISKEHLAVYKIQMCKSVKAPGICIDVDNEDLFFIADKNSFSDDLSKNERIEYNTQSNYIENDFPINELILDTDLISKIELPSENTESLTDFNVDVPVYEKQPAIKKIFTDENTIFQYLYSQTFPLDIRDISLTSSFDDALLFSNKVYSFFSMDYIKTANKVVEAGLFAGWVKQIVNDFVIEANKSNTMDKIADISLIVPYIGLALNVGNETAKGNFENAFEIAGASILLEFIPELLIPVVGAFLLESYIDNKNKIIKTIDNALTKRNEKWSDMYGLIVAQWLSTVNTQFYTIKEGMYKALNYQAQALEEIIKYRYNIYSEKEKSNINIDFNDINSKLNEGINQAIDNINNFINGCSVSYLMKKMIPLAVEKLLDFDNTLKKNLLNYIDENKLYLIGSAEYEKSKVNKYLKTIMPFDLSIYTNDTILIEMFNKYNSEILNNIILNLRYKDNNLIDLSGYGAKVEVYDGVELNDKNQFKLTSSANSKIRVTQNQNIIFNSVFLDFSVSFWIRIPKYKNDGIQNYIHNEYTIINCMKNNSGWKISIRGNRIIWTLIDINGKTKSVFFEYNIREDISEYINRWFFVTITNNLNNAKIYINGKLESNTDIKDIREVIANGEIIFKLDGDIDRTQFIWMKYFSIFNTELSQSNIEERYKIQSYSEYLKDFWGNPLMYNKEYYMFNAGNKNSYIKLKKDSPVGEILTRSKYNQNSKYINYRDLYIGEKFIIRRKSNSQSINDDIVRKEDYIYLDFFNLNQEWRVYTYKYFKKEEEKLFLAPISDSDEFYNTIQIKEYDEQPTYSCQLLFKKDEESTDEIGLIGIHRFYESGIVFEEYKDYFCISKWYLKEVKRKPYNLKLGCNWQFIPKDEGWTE
Test: ELISA

B1: 人源抗A型肉毒神经毒素基因工程抗体 HuAb-BNa 单链抗体 (ScFv) (scFv)
scFv: QVQLQESGPGLVKPSETLSLTCTVSGGSISSGSYYWGWIRQPPGKGLEWIGSIYYSGSTYYNPSLKSRVTISVDTSKNQFSLMLSSVTAADTAVYYCARQGSSGYYQNWFDPWGQGTLVTVSSSGGGGSGGGGSGGGGDVVMTQSPGTLSLSPGERATLSCRASQSVSSSYLAWYQQKPGQAPRLLIYGASSRATGIPDRFSGSGSGTDFTLTISRPEPEDFAVYYCQQPGFTFGPGTKVEIKRTVAA
binding result: no binding
